Positions count from the first letter of the chain named.
T1: OVA (UniProt P01012 2-386)
T1 sequence (looked up): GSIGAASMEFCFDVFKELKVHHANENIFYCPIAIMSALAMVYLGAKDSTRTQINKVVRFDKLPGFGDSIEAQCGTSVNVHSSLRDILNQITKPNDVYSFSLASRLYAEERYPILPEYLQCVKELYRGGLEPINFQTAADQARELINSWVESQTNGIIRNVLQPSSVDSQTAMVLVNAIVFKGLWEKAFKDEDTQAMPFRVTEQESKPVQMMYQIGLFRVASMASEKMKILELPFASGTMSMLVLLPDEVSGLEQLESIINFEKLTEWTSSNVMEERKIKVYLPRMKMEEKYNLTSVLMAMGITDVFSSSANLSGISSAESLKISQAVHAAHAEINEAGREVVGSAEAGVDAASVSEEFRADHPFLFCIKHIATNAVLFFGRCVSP

B1: light chain of i41SL1-2 antibody (i41SL1-2-L) (protein)
VL: DIVMTQTQLTLTINIGQPASISCKSSQSLLDSDGKTYLNWLFQRPGQSPKRLIYLVSKLDSGVPDRFTGSGSGTDFTLKISRVEAEDLGVYYCWQGTHFPLTFGAGTKLELRRA
B2: light chain of ECL2B-2 (ECL2B-2-L) (protein)
VL: DVLMTQTPLSLPVSLGDQASISCRSSQSIVHSNGNTYLEWYLQKPGQSPKLLIYKVSNRFSGVPDRFSGSGSGTDFTLKINRVAAEDLGVYYCFQGSHVPWTFGGGTKLEIKRA
B3: heavy chain of i41SL1-2 antibody (i41SL1-2-H) (protein)
VH: QVQLQHSGAELVRPGSSVKVSCKALGYTSTDYEIHWVKQTPVRGLEWIGAIHPGSDVIVYNQKFKGTATLTADKSSSTAYMELRSLTSEDSAVYYCTREGGSVDYVWGQGTLVTVSA
B4: light chain of ECL2B-4 (ECL2B-4-L) (protein)
VL: B2 VL with L51F, N81S, A84E, A85T
B5: monoclonal antibody ECL2B-3 (antibody, V domains shown)
VH: QIQLVQSGPELKKPGETVKISCKASGYTFTNYGMNWVKQAPGKGLEWMGWINTYTGEPTYAGDFMGRSVFSLETSASTAYLQINNLENKDTATYICARSGSPYAMDYWGQGTSVTVS
VL: DIALTQSPASLAVSLGQRATISCKASQSVDYDGDSYMNWFQQKPGQPPKLLIYAASNLESGIPGRFSGSGSGTDFTLNIHPVEEEDIATYYCQQSYEDPFTFGSGTILDIKR
B6: monoclonal antibody ECL2B-2 (antibody, V domains shown)
VH: DVKLVESGGGLVKPGGSLKLSCAASGFTFSRYTMSWVRQTPEKRLEWVATISSGGSYTYYPDSVKGRFTISRDIAKNTLYLQMSSLKSEDTALYYCTREGGYGAFASWGQGTLVTVS
VL: DVLMTQTPLSLPVSLGDQASISCRSSQSIVHSNGNTYLEWYLQKPGQSPKLLIYKVSNRFSGVPDRFSGSGSGTDFTLKINRVAAEDLGVYYCFQGSHVPWTFGGGTKLEIKR
notes: also called intact monoclonal antibody ECL2B-2

Key:
[1] = target: CDR1 antigen peptide (…), synthetic peptide of CDR 1 of the light chain of antibody 41S-2; assay: cell-based or functional assay
[2] = target: ECL2B peptide (…), partial peptide of CCR-5 (human); assay: cell-based or functional assay
[3] = target: peptide TP41-1 of a retention region of gp41 (HIV-1) (…) (HIV-1); assay: cell-based or functional assay
[4] = target: ECL2B peptide (sequence No.38) as named in Experiment 3-9 (human); assay: cell-based or functional assay
OVA = target: T1, OVA; assay: ELISA (immunoassay of Experiment 3-3), absorbance at 405 nm
Description: (§1) The blocking was applied with 2% gelatin at room temperature.

HSA = HSA (human, UniProt P02768 25-609); assay: as above
HSA, sequence (P02768 25-609): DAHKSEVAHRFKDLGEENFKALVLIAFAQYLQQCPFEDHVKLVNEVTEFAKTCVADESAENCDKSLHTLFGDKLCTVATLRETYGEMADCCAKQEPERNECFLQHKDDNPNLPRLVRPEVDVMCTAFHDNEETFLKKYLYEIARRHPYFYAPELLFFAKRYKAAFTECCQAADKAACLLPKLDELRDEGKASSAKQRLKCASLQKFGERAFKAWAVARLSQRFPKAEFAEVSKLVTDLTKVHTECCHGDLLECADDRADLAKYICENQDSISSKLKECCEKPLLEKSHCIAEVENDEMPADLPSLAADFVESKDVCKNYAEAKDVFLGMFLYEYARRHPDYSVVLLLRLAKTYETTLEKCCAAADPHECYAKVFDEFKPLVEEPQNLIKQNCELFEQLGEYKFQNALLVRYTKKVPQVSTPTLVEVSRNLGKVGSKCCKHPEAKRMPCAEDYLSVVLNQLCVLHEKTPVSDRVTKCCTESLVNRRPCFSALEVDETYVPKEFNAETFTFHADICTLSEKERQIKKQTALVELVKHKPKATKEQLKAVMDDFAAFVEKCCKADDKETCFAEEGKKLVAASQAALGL
Description: as §1

ECL2B peptide (…), partial peptide of CCR-5 (human), sequence (peptide, as listed by the source): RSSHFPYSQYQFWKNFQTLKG

Binder	Km [1] [µM]	kcat [1] [min⁻¹]	kcat/Km [1] [M⁻¹ min⁻¹]	binding result (OVA)	binding result (HSA)	also measured
B1	2	0.613	310000	–	–	–
B2	–	–	–	–	–	time until the ECL2B peptide disappeared (RP-HPLC) [2]: 90 h
B3	13	0.618	48700	–	–	–
B4	–	–	–	–	–	Km [3]: 12.5 µM; Vmax [3]: 0.0624 µM/min; kcat [3]: 0.16 min⁻¹; kcat/Km [3]: 12500 M⁻¹ min⁻¹; Km [4]: 35 µM; Vmax [4]: 0.31 µM/min; kcat [4]: 0.72 min⁻¹; kcat/Km [4]: 22000 M⁻¹ min⁻¹
B5	–	–	–	no binding	no binding	–
B6	–	–	–	no binding	no binding	–

— patent US20060030015A1 (published 2006)
